Laboratory results reported in publication PMC2962499 (The Journal of Biological Chemistry, 2010).

T1: SpRpn12 fragment (residues 1-250) (Schizosaccharomyces pombe, UniProt P50524 1-250)
T1 sequence (looked up): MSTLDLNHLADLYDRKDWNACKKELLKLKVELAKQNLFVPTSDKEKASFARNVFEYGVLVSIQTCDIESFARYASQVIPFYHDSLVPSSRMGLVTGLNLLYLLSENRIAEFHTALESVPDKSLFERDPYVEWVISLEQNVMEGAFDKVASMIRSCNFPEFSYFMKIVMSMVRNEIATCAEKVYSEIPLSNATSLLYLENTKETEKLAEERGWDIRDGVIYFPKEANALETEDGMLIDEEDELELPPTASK


What was measured:
[1] = target: T1, SpRpn12 fragment (residues 1-250); assay: NMR titration
monoubiquitin (bovine) = monoubiquitin (bovine) (bovine, UniProt P0CG53 1-76); assay: ITC

| binding result [1] | Kd (monoubiquitin (bovine)) [µM] | Binder |
| --- | --- | --- |
| binds | – | SpRpn10 VWA domain (residues 1-195) (domain or fragment, Schizosaccharomyces pombe, UniProt O94444 1-195, looked up) MVLEATMILIDNSEWMINGDYIPTRFEAQKDTVHMIFNQKINDNPENMCGLMTIGDNSPQVLSTLTRDYGKFLSAMHDLPVRGNAKFGDGIQIAQLALKHRENKIQRQRIVAFVGSPIVEDEKNLIRLAKRMKKNNVAIDIIHIGELQNESALQHFIDAANSSDSCHLVSIPPSPQLLSDLVNQSPIGQGVVASQ |
| – | 139 | Schizosaccharomyces pombe Rpn10, full-length (residues 1-243) (natural protein) MVLEATMILIDNSEWMINGDYIPTRFEAQKDTVHMIFNQKINDNPENMCGLMTIGDNSPQVLSTLTRDYGKFLSAMHDLPVRGNAKFGDGIQIAQLALKHRENKIQRQRIVAFVGSPIVEDEKNLIRLAKRMKKNNVAIDIIHIGELQNESALQHFIDAANSSDSCHLVSIPPSPQLLSDLVNQSPIGQGVVASQNQFEYGVDPNLDVELALALELSMAEERARQEVAAQKSSEETEDKKMQE |
